Data taken from the supplement of paper PMC9170038.

Test system: MS2 coat protein
Assay: apparent KD of MS2 coat protein; designed switch direction (-1 OFF switch, 1 ON switch): -1; higher = weaker reporter binding
Outline: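 Transcription of designed RNA switches on Illumina chips was done by stalled E. coli RNA polymerase. SNAP-549-labelled MS2 coat protein was then titrated in doubling steps from 0.7 or 1.5 nM to 3 µM, with steps of 0.8–1.5 h at the lowest and 10–20 min at the highest concentration. The per-design median over clusters of curve-fitted normalised fluorescence is reported as apparent KD.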

[1] = Eterna round: R95, input ligand: FMN 200 uM
[2] = Eterna round: R95, input ligand: microRNA oligo, concentration not stated
[3] = Eterna round: R95, input ligand: none
[4] = input ligand: microRNA oligo, concentration not stated

AAAUACAAGUAAAGAUUCUACAUGAGGAUCACCCAUGUGCUCGUCUUAUAAAGUACUAUCACGAAAGUGAUAGUACA [Sensor 3, v1 - 26] (puzzle: Sensor v3, turn-off variant 1)
apparent KD of MS2 coat protein [1]: 17 nM
apparent KD of MS2 coat protein [2]: 188 nM
apparent KD of MS2 coat protein [3]: 15 nM

UGCCGUUGAGGAUAUACAUUGAAUUUGAUUCAUGUAAAACUACAUGAGGAUCACCCAUGUAGAAGGCAAUGGCU [Mat - Exclusion 2 - JL Mod - D63] (Eterna round: R97, puzzle: Exclusion 2)
apparent KD of MS2 coat protein (input ligand: FMN 200 uM): 25.7 nM
apparent KD of MS2 coat protein (input ligand: none): 21.3 nM

GAAAAGUGAGGAUAUGGUAAAAAAAAAAGAAAAAAAAAACUCCAGAAGGCACAUGAGGAUCACCCAUGUAAAAG [salish99_ex4_r3_003] (puzzle: Exclusion 4)
apparent KD of MS2 coat protein [1]: 41.9 nM
apparent KD of MS2 coat protein [2]: 19.5 nM
apparent KD of MS2 coat protein [3]: 58.6 nM

AUAGAGUUAGGAUAUGAGAGGCCGAACAUGAGGAUCACCCAUGUUCCGCGUGUUGCUCCCUUAGAAGGAACGAAUA [EX5 B.3] (Eterna round: R97, puzzle: Exclusion 5)
apparent KD of MS2 coat protein (input ligand: FMN 200 uM): 14.7 nM
apparent KD of MS2 coat protein (input ligand: none): 22 nM

GUGGGUUACAUGAGGAUCACCCAUGUAGAGUGGGAAGAGAGAUAGGAUAUGAUGUGAGAAUUAUAUUAGAAGGAUCGAGACUCG [AK ExNG3-2.5] (Eterna round: R96, puzzle: Exclusion NG 3)
apparent KD of MS2 coat protein (input ligand: FMN 200 uM): 246 nM
apparent KD of MS2 coat protein [4]: 174 nM
apparent KD of MS2 coat protein (input ligand: none): 285 nM

UGUACUAACACGAGAGUGUUAGUACUAUAAGCUUGUGUUACAUGAGGAUCACCCAUGUCCUCAUAAGCUCGUCUUGA [Mat - Sensor v3 - Turn-off var 2 - D94] (puzzle: Sensor v3, turn-off variant 2)
apparent KD of MS2 coat protein [1]: 40.4 nM
apparent KD of MS2 coat protein [2]: 285 nM
apparent KD of MS2 coat protein [3]: 34 nM

AAAUACAAGUAGAGAUUCUACAUGAGGAUCACCCAUGUGCUCGUCUUAUAAAGUACUAUCACGAAAGUGAUAGUACA [Sensor 3, v1 - 37] (puzzle: Sensor v3, turn-off variant 1)
apparent KD of MS2 coat protein [1]: 14.2 nM
apparent KD of MS2 coat protein [2]: 211 nM
apparent KD of MS2 coat protein [3]: 14.1 nM

CUAACGAAAGGAUAUAUGGCAUGAGACAUGAGGAUCACCCAUGUGAACCACCUACAGUACAUAGAAGGUUCGCUAG [Eternabot (Original) Solution 18] (Eterna round: R97, puzzle: Exclusion 5)
apparent KD of MS2 coat protein (input ligand: FMN 200 uM): 65.9 nM
apparent KD of MS2 coat protein (input ligand: none): 94.6 nM

GCCAGAGCAGGAUAUUUAUAUUAUCACAUGAGGAUCACCCAUGUCCAGCGAAAGCUGGAGGGAGAAGGGCUCUGGC [Fiskers Ex 5 - 25] (puzzle: Exclusion 5)
apparent KD of MS2 coat protein [1]: 121 nM
apparent KD of MS2 coat protein [2]: 190 nM
apparent KD of MS2 coat protein [3]: 250 nM

UAUCGGGACUGAGGAUAUUCGUUCGAACGCGAAGAAGAAGGUAGUGUCAGGGACAUGAGGAUCACCCAUGUGAUUUCAGUCCCA [JL ViennaUCT Erinle mod 5] (Eterna round: R96, puzzle: Exclusion NG 1)
apparent KD of MS2 coat protein (input ligand: FMN 200 uM): 98.2 nM
apparent KD of MS2 coat protein [4]: 56.1 nM
apparent KD of MS2 coat protein (input ligand: none): 99 nM

GGAUAGUGAGGAUAUCGAUGUUAGGAGGAGUAGAUAGGAGGCGAGAAGGCACAUGAGGAUCACCCAUGUAUGGA [JR_Exclu4_Sub068] (puzzle: Exclusion 4)
apparent KD of MS2 coat protein [2]: 47.8 nM

ACAUGAGGAUCACCCAUGUGACAAUAAUGGCUGAUACAGAAACAGGAUAUUCGUGAAUAUCUAACGAAGAAGGGUUAUGACUGG [Deportation 68 - Jieux - Exclusion NG 3] (Eterna round: R96, puzzle: Exclusion NG 3)
apparent KD of MS2 coat protein (input ligand: FMN 200 uM): 36.4 nM
apparent KD of MS2 coat protein [4]: 41 nM
apparent KD of MS2 coat protein (input ligand: none): 44 nM

GGUAGAGUGGUAGGAUAUCCGACUGAAACAGACGGAGAAGGACCACAGUCACUGGGUCCACUUAUAAUUAACAAUAAAUCUACC [pwkr exNG1 F6.2] (Eterna round: R96, puzzle: Exclusion NG 1)
apparent KD of MS2 coat protein (input ligand: FMN 200 uM): 326 nM
apparent KD of MS2 coat protein [4]: 120 nM
apparent KD of MS2 coat protein (input ligand: none): 263 nM

CUUAAACAUGAGGAUCACCCAUGUGAGGAUAUGAUGCGAAUAAAGAAAGAAGAAAGCAUCAGAAGGCACAUAUG (Eterna round: R96, puzzle: Exclusion 1)
apparent KD of MS2 coat protein [4]: 65.9 nM

AUAUAGUCAGGAUAUCGAAGUGUGUGUUGGUUUGUAAUUUACGAGAAGGGACAUGAGGAUCACCCAUGUAGGAA [JR_Exclusion4)Sub002] (puzzle: Exclusion 4)
apparent KD of MS2 coat protein [2]: 35.8 nM

CAAUAGGGAGGAUAUCCAAUAUAUGACAUGAGGAUCACCCAUGUUUCCACUCGUACCUCCGGAGAAGGCCCAUAAC [Ex5 #7] (Eterna round: R97, puzzle: Exclusion 5)
apparent KD of MS2 coat protein (input ligand: FMN 200 uM): 21.1 nM
apparent KD of MS2 coat protein (input ligand: none): 21.7 nM

AAAGAACAUGAGGAUCACCCAUGUGAGGAUAUGCGAAAACCGCUGGCGCACCAGACGGGCAGAAGGCAUAUGGU [Aonustiri] (puzzle: Exclusion 1)
apparent KD of MS2 coat protein [2]: 48.9 nM

UAAAAGUGAGGAUAUACGUGAAAUCCGCCAGGCGGAGAUCUACAUGAGGAUCACCCAUGUAGAAGGCACGGAAU [EX2 A.13] (Eterna round: R97, puzzle: Exclusion 2)
apparent KD of MS2 coat protein (input ligand: FMN 200 uM): 15.8 nM
apparent KD of MS2 coat protein (input ligand: none): 14 nM

GGUGCGUGUGUGAGGAUAUGCUGGUCCUUGGCUCGGCAGAAGGCACAUGAGGAUCACCCAUGUGGUGUCGUGCC [salish99_Bmod_ex4_057] (puzzle: Brourd's mod of Exclusion 4)
apparent KD of MS2 coat protein [2]: 19.9 nM

GGAUCCUGGGUCAGGAUAUGCUGACAGCUUUGUCAGCAGAAGGGACAUGAGGAUCACCCAUGUGCUCGGUUUUG [Magic-20] (puzzle: Brourd's mod of Exclusion 4)
apparent KD of MS2 coat protein [2]: 9.68 nM

GGGAAACAUGAGGAUCACCCAUGUAAGGAUAUGCAAAAGGAUAUAGAAGGAAAAAAAAGCAGAAGGUACAAAGG [salish99-ex1_r3_100] (puzzle: Exclusion 1)
apparent KD of MS2 coat protein [1]: 68.8 nM
apparent KD of MS2 coat protein [2]: 59.8 nM
apparent KD of MS2 coat protein [3]: 57.3 nM

GGCCGUAAUAAGGAUAUCACUAGCCUCGGCUAGUGAGAAGGUAUUACAUGAGGAUCACCCAUGUGGUCAGGCCA [E6/4-B2] (Eterna round: R97, puzzle: Exclusion 6)
apparent KD of MS2 coat protein (input ligand: FMN 200 uM): 903 nM
apparent KD of MS2 coat protein (input ligand: none): 285 nM

GGAGCGGCAGGAUAUACAUGAGGAUCACCCAUGUAAAGAAGGGUAAGAAACCACCUCGGUAGAAGGGCCAGGAG [AK-MS2ROC-r4-exclusion3-10] (Eterna round: R97, puzzle: Exclusion 3)
apparent KD of MS2 coat protein (input ligand: FMN 200 uM): 191 nM
apparent KD of MS2 coat protein (input ligand: none): 94.5 nM

AACCGUGCGGAGGAUAUUGAUAUCCCAGUCUAUCAAGAAGGCUGCACAUGAGGAUCACCCAUGUGAUCCGUGCU [Riri] (puzzle: Exclusion 6)
apparent KD of MS2 coat protein [2]: 23.6 nM

ACAAGCUUUUUGUUCGUCUUAUACACUCCUAAUAGGACAACAUGAGGAUCACCCAUGUAACAAAGACGAACUCAUGU [Sesor Array 9 - Jieux - Sensor v3, turn-off variant 2] (puzzle: Sensor v3, turn-off variant 2)
apparent KD of MS2 coat protein [1]: 11.6 nM
apparent KD of MS2 coat protein [2]: 169 nM
apparent KD of MS2 coat protein [3]: 9.63 nM

AUUGAUGUUGAGGAUAUGCAUAUAUUUAUACUAGCAGAAGGCGAUACAUGAGGAUCACCCAUGUUCAUGGAAGU [JR_E6_Sub093] (puzzle: Exclusion 6)
apparent KD of MS2 coat protein [1]: 39.1 nM
apparent KD of MS2 coat protein [2]: 24.7 nM
apparent KD of MS2 coat protein [3]: 28 nM
